# Data reported in paper PMC5084270 (The Journal of Cell Biology, 2016).
# B1: GFP-DDB2 (natural protein)
# chain: MAPKKRPETQKTSEIVLRPRNKRSRSPLELEPEAKKLCAKGSGPSRRCDSDCLWVGLAGPQILPPCRSIVRTLHQHKLGRASWPSVQQGLQQSFLHTLDSYRILQKAAPFDRRATSLAWHPTHPSTVAVGSKGGDIMLWNFGIKDKPTFIKGIGAGGSITGLKFNPLNTNQFYASSMEGTTRLQDFKGNILRVFASSDTINIWFCSLDVSASSRMVVTGDNVGNVILLNMDGKELWNLRMHKKKVTHVALNPCCDWFLATASVDQTVKIWDLRQVRGKASFLYSLPHRHPVNAACFSPDGARLLTTDQKSEIRVYSASQWDCPLGLIPHPHRHFQHLTPIKAAWHPRYNLIVVGRYPDPNFKSCTPYELRTIDVFDGNSGKMMCQLYDPESSGISSLNEFNPMGDTLASAMGYHILIWSQEEARTRK
# Target: FLAG-DDB1 (UniProt Q16531 1-1140)
# Sequence (Q16531 whole entry): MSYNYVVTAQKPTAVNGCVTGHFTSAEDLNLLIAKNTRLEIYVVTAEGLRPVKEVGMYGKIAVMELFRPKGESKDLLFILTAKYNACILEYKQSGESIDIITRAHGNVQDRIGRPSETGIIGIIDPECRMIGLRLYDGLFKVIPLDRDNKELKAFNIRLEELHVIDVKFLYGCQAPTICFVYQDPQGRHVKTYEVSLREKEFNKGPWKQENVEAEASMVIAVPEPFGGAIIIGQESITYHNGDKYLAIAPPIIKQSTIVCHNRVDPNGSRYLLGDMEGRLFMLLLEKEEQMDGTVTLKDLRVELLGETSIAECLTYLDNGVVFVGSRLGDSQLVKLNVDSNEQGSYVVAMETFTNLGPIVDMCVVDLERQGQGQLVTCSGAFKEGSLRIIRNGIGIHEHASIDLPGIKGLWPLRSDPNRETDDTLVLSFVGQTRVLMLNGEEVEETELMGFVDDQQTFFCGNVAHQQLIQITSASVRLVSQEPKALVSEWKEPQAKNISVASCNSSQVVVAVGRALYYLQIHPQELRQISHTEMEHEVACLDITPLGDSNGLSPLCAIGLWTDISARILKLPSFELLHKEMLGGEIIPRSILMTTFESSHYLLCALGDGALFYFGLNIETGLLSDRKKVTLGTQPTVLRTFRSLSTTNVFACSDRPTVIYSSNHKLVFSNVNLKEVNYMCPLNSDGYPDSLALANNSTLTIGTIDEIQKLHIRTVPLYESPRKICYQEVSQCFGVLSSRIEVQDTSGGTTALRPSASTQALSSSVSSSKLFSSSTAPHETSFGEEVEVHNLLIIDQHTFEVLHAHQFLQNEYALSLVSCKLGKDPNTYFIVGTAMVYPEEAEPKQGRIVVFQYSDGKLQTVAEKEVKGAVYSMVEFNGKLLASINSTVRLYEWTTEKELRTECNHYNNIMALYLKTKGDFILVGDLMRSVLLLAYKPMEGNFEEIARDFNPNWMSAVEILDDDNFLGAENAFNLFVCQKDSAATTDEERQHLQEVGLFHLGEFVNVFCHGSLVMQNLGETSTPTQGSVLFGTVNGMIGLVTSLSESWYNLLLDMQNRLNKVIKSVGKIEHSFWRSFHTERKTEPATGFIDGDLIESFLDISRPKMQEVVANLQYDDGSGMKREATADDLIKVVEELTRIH
# Assay: pull-down
binder,measurement,value
B1,binding result,binds
